Tests used:
E-cadherin = molecular target: T1, E-cadherin (Homo sapiens, UniProt P12830); test: BbHtrA proteolysis assay, E-cadherin substrate; type: biochemical; conditions: SDS-PAGE, FIG. 5
T1 sequence (P12830 155-882): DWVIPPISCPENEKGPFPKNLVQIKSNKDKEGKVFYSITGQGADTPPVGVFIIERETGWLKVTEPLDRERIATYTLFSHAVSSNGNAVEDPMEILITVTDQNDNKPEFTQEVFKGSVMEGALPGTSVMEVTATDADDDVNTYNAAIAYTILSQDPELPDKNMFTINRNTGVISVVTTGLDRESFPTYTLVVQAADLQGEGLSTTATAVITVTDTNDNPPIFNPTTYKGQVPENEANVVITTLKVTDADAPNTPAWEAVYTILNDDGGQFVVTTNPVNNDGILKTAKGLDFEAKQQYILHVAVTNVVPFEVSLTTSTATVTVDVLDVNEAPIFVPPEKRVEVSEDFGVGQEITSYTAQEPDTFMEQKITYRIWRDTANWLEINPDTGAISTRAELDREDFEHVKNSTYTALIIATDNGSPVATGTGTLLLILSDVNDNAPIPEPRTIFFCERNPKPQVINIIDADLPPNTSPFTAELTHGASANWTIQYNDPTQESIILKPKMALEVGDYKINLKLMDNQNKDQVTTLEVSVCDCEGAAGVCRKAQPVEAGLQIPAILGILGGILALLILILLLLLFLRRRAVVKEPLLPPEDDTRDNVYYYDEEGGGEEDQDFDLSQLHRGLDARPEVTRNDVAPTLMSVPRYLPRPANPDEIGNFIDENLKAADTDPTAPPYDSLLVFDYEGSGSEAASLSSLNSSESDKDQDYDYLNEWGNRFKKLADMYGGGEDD
Description: (§1) For proteolysis assays described in Examples herein, purified protein substrates (200-600 nM) and proteases (100-150 nM) were diluted in assay buffer (50 mM HEPES, pH 7.4, 5 mM CaCl2) and incubated overnight at 37° C. Samples were boiled for 4 minutes to inactivate the proteases. Proteoglycans were deglycosylated by overnight incubation at 37° C. with 0.01 U chondroitinase ABC (Seikagaku). Reactions were stopped by the addition of SDS/PAGE sample buffer, boiled for 4 minutes, and electrophoresed on pre-cast Tris-glycine gels (BioRad). Reaction products were visualized by silver staining.
(§2) Purified proteins were incubated with BbHtrA or BbHtrA^S226A as described herein. HtrA (also known as DegP) proteases belong to the family of serine proteases which contain a highly reactive serine residue in their active site. This serine (Ser210 in DegP) is part of the canonical His-Ser-Asp catalytic triad and mutation of the catalytic serine abolishes proteolytic activity (Skorko-Glonek et al., 1995). In BbHtrA, residues His119, Ser226 and Asp149 form the catalytic triad and mutation of serine 226 to alanine abolished proteolytic activity as expected (FIG. 5).
(§3) Reaction products were separated by SDS-PAGE and silver stained. Native collagen II and recombinant tenascin C were not degraded by BbHtrA indicating selectivity for proteoglycans, E-cadherin and fibronectin. […]

Casein = test: BbHtrA proteolysis assay, casein substrate; type: biochemical, bovine; conditions: SDS-PAGE, FIG. 5
Description: as §1, §2, §3

B1: BbHtrA: Recombinant wild type B. burgdorferi HtrA serine protease, mature protein amino acids 38-474, expressed in E. coli (SEQ ID NO:1, 9) (protein, listed as Borrelia burgdorferi)
chain: EEKDNTVRALQDSFREVSKKILPSSVEVHATGVIKQSFPIPFFFFDMPEFDSERKSNWAGSGVIIGRDSQKKSLFYVVTNSHVVDKATELEVVSYDKKKHKAKLIGKDEKKDIALISFESDDATIKVADLGDSDKLEIGDWVMAVGSPFQFSFTVTAGIVSGLQRSANPNLQSRNLFIQTDAAINRGNSGGPLVNIKGEVIGINAWIASNSGGNIGLGFAIPVNNIKSTVDFFLKGKKIESAWLGISFYPLKTRDSEVLKSLGVESNDVSAAIIASLYPGSPAVKSGLRAGDIIMKVNGVSMSVFQDVTSYISDFYAGEKVNVEILRGNVKKNIEIVLAVRPKDKELSSSKMLPGFVVYPLVEDIKAQLNLRNWIKGVVVDYIDKNLASNIKMKSGDVILSVNSKSVSNLREFYDALEVGKNTYKILRGNDSFKITF
Degradation of E-cadherin (E-cadherin): degrades
Degradation of casein (Casein): degrades

— US9383360B2, “Compositions and methods relating to lyme disease” (The United States of America, as represented by the …, priority 2012, dated 2016)
